Results as given in paper PMC6063439.

Experiment: immunoblot of HEK293 lysate and culture medium
Conditions: glycan lost; control: wild-type FMOD

B1: fibromodulin (FMOD): FMODΔGAG (protein)
parent chain: MQWTSLLLLAGLFSLSQAQYEDDPHWWFHYLRSQQSTYYDPYDPYPYETYEPYPYGVDEGPAYTYGSPSPPDPRDCPQECDCPPNFPTAMYCDNRNLKYLPFVPSRMKYVYFQNNQITSIQEGVFDNATGLLWIALHGNQITSDKVGRKVFSKLRHLERLYLDHNNLTRMPGPLPRSLRELHLDHNQISRVPNNALEGLENLTALYLQHNEIQEVGSSMRGLRSLILLDLSYNHLRKVPDGLPSALEQLYMEHNNVYTVPDSYFRGAPKLLYVRLSHNSLTNNGLASNTFNSSSLLELDLSYNQLQKIPPVNTNLENLYLQGNRINEFSISSFCTVVDVVNFSKLQVLRLDGNEIKRSAMPADAPLCLRLASLIEI
  expression_or_secretion: abolishes
